In patent publication US20180079804A1 (Hoffmann-La Roche, published 2018):
Residue numbers refer to the chain shown, from its start. Non-standard residues stand in square brackets, D forms with d. No end group written: not given here. *: point of attachment. Biotin = O=C1N[C@H]2[C@H](CS[C@H]2CCCCC(=O)*)N1; pS = N[C@@H](COP(=O)(O)O)C(=O)O; code U = not defined here; code X = not defined here

T1: Tau(pS422) fragment SEQ ID NO: 03 (human)
T1 construct: also called phosphorylated tau peptide
T1 peptide: SIDMVD[pS]PQLATLAD

T2: tau peptide residues 416 to 430 of SEQ ID NO: 01 (human, also: biotinylated, site not given here)
T2 construct: also called non-phosphorylated tau peptide
T2 peptide: SIDMVDSPQLATLAD

T3: biotinylated pTau fragment pTau(416-430)[Bi-XUUUU-416; pSer-422]amid (human, reading uncertain; also: printed as pTau(416-430)[Bi-XUUUU-416; pSer-422]amid)
T3 construct: also called Tau(pS422) fragment
T3 peptide: {Biotin-code X-code U-code U-code U-code U}-SIDMVD[pS]PQLATLAD-NH2

B1: VH32/VL22 (antibody, V domains shown)
VH: EVQVLESGGGLVQPGGSLRLSCAVSGFSLSSNAINWVRQAPGKGLEWVGYIAVSGNTYYASWAKGRFTISRDNSKNTVYLQMNSLRAEDTAVYYCGKSNIWGQGTLVTVSS
VL: AQVMTQSPSSLSASVGDRVTITCRSSQSVRTNRLAWFQQKPGQPPKRLIYSASTLDYGVPSRFSGSGSGTEFTLTISSLQPEDFATYYCLGYFDSSADIVAFGGGTKVEIK
notes: full size IgG
B2: VH35H5/VL49G1 (antibody, V domains shown)
VH: B1 VH with F27I
VL: B1 VL with T31S, R33K, T54N
notes: IgG captured via anti-human Fc; also called antibody 2
B3: VH32/VL4G1 (antibody, V domains shown)
VH: B1 VH
VL: B1 VL with R33K, Y57F, S96P
B4: VH35H5/VL31A1 (antibody, V domains shown)
VH: B1 VH with F27I
VL: B1 VL with T31N, R33K, T54D
notes: IgG captured via anti-human Fc; also called antibody 1
B5: VH35H5/VL35F2 (antibody, V domains shown)
VH: B1 VH with F27I
VL: B1 VL with R33K, Y57F, S96P, A97L
notes: IgG captured via anti-human Fc
B6: VH00/VL00 (antibody, V domains shown)
VH: QSVEESGGRLVTPGTPLTLTCTVSGFSLSSNAINWVRQAPGKGLEWIGYIAVSGNTYYASWAKGRFTISKASTTVDLKMTSPTAEDTGTYFCGKSNIWGPGTLVTVSL
VL: AQVLTQTTSPVSAAVGSTVTISCQSSQSVRTNKLAWFQQKPGQPPKRLIYSASTLDFGVPSRFSASGSGTQFTLTISDVQCDDAATYYCLGYFDCSIADCVAFGGGTEVVVK
notes: variable domains of rabbit mAb 086; also called VH00 with VL00 (rabbit antibody); parental rabbit antibody
B7: VH32/VL35G4 (antibody, V domains shown)
VH: B1 VH
VL: B1 VL with R33K, Y57F, L90A, D94E, S95A, S96P
notes: as for B5
B8: VH76A6/VL35G4 (antibody, V domains shown)
VH: B1 VH with S31N, N32S
VL: B1 VL with R33K, Y57F, L90A, D94E, S95A, S96P
notes: as for B5
B9: VH76A6/VL145B12 (antibody, V domains shown)
VH: B1 VH with S31N, N32S
VL: B1 VL with T31S, R33K, S51A, T54N, Y57F
notes: as for B5
B10: mAb 086 (antibody, V domains shown)
VH: B6 VH
VL: B6 VL
notes: also called rabbit antibody 086
B11: VH35H5/VL31A1 Fab fragment (Fab, V domains shown)
VH: B1 VH with F27I
VL: B1 VL with T31N, R33K, T54D
B12: VH35H5/VL49G1 Fab fragment (Fab, V domains shown)
VH: B1 VH with F27I
VL: B1 VL with T31S, R33K, T54N
B13: VH32/VL22 Fab fragment (Fab, V domains shown)
VH: B1 VH
VL: B1 VL
B14: VH32/VL21 (antibody, V domains shown)
VH: B1 VH
VL: B1 VL with R33K, Y57F
notes: full size IgG

Biological target: T1, Tau(pS422) fragment SEQ ID NO: 03
Experiment: ELISA
Experimental: (§1) Non-biotinylated peptide/protein/aggregate was added to non-coated Maxisorb plates, biotinylated peptide/protein/aggregate in PBS was added to streptavidin-coated Maxisorb plates, and plates were incubated over-night. The supernatant was discarded and the wells washed three times with 90 μl wash buffer (1x PBS/0.1% Tween 20). Remaining reactive spots were blocked with blocking buffer (1x PBS/2% BSA (Bovine Serum Albumin Fraction V, fatty acid free, Roche, Cat. No.: 10735078001)/0.05% Tween 20) by incubating for 1 hour. The supernatant was discarded and the wells washed three times with 90 μl wash buffer. Samples and control antibody were prepared in 12 dilutions (1:2) in ELISA buffer (1×PBS/0.5% BSA (Bovine Serum Albumin Fraction V, fatty acid free, Roche, Cat. No.: 10735078001)/0.05% Tween 20) with a start concentration of 500 ng/mL. The incubation time was 60 minutes at room temperature on a shaker. The supernatant was discarded and the wells washed three times with 90 μl wash buffer. Solutions of secondary antibody were prepared in ELISA buffer. A total of 25 μl antibody-mix was transferred to all wells of the assay plate and the plate was thereafter incubated on shaker for 60 minutes at room temperature. The supernatant was discarded and the wells were washed three times with 90 μl wash buffer. 25 μl of ABTS solution was added to all wells. The absorbance was read at 405 nm-492 nm.

EC50 [ng/mL]	Binder
5.6	B1

Biological target: T1, Tau(pS422) fragment SEQ ID NO: 03
Experiment: ELISA
Remark: another data set of the same source
Experimental: as §1, with “No.: 10735078001)/0.05% Tween 20) with a start concentration of 500 ng/mL.” left out

EC50 [µg/mL]	Binder
0.034	B2
0.0273	B3
0.0404	B1
0.033	B4
0.0452	B5

biological target: T4, full length human tau SEQ ID NO: 01 (human, UniProt P10636 1-758); experiment: ELISA
T4 construct: not phosphorylated; also called tau protein; non-phosphorylated full-length human tau
T4 sequence (P10636 other isoform, or with tags, fused parts or gaps limits assumed): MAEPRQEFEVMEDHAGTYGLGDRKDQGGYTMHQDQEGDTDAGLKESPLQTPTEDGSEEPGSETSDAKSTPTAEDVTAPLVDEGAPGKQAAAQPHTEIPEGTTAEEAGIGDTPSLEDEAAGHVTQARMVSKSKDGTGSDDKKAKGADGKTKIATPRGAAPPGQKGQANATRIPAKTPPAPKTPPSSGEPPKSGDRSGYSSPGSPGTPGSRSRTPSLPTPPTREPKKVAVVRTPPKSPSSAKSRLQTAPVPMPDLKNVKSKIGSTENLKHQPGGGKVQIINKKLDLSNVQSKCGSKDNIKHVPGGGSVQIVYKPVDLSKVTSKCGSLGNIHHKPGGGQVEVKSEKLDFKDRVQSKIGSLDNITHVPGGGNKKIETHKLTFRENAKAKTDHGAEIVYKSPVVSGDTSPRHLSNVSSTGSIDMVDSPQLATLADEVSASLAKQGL
Experimental: as §1, with “No.: 10735078001)/0.05% Tween 20) with a start concentration of 500 ng/mL.” left out

OD@1 µg/mL [OD]	Binder
0.04	B6
0.04	B2
0.04	B3
0.14	B1
0.04	B7
0.04	B4
0.04	B5
0.04	B8
0.04	B9

Biological target: T2, tau peptide residues 416 to 430 of SEQ …
Experiment: ELISA
Experimental: as §1, with “No.: 10735078001)/0.05% Tween 20) with a start concentration of 500 ng/mL.” left out

OD@1 µg/mL [OD]	Binder
0.54	B6
1.42	B2
1.13	B3
2.26	B1
0.07	B7
1.03	B4
1.31	B5
0.07	B8
0.44	B9

Biological target: T1, Tau(pS422) fragment SEQ ID NO: 03
Experiment: ELISA, ratio of EC50 values
Experimental: Rabbit monoclonal antibodies were recombinantly expressed in HEK293 cells. […] For preparation of ELISA plates, streptavidin pre-coated microtiter plates were incubated with biotinylated tau (415-430)[pS422] at 50 ng/ml for 1 hour at room temperature. Coating with KLH or control peptides was performed at 1 μg/ml. Rabbit anti-Tau(pS422) antibody (Abcam AB51071) or rabbit antibody containing supernatants were incubated in the antigen labeled microtiter plates for 60 minutes at various concentrations. After intensive washing, the binding of the rabbit antibodies was detected using a sheep anti-rabbit IgG […] conjugated detection antibody (Chemicon AQ301D). After incubation with TMB at room temperature absorbance at 370 nm-492 nm was measured. The antibody binding was characterized by its EC₅₀ values. […] Cross-reactivity with KLH or MCAK phosphopeptide was estimated by single-point measurement at high concentrations, i.e., at 1:5 dilution of the cell culture supernatants. […] Binding to KLH and MCAK control phosphopeptide was at background level with all antibodies, which is about 1 to 3% of the maximal value measures with tau phosphopeptide.

selectivity for phosphorylated tau fragment compared to non-phosphorylated tau peptide [fold]	Binder
≥ 100	B10

Biological target: T1, Tau(pS422) fragment SEQ ID NO: 03
Experiment: SPR capture assay (Example 10), 25 C
Experimental: Binding of pTau fragment to anti-pTau antibodies was investigated by surface plasmon resonance using a BIACORE T200 instrument (GE Healthcare). Around 10,000 resonance units (RU) of the capturing system (10 μg/ml goat anti-human Fc antibody; Jackson Immuno Research; Order Code: JIR 109-005-098) were coupled on a CM5 chip (GE Healthcare BR-1005-30) at pH 5.0 by using an amine coupling kit supplied by the GE Healthcare. As running buffer, HBS-N pH 7.4 (10 mM HEPES, 150 mM NaCl, pH 7.4, GE Healthcare) was used. For measurement of the samples, running and dilution buffer was PBS-T (10 mM phosphate buffered saline including 0.05% Tween 20), pH 7.4. The sample block was set to 12° C. The flow cell was set to 25° C. and primed with running buffer twice.

Kd [nM]	koff [s⁻¹]	kon [M⁻¹ s⁻¹]	Binder
2	0.000624	312000	B2
1.62	0.000616	380000	B4
2.29	0.000321	140000	B5

Biological target: T3, biotinylated pTau fragment …
Experiment: SPR direct assay (Example 11), Fab over immobilized biotinylated fragment, 25 C
Experimental: Binding of anti-pTau antibody Fab fragment samples to pTau fragment was investigated by surface plasmon resonance using a BIACORE T200 instrument (GE Healthcare). […] Running and dilution buffer for immobilization was HBS-N, pH 7.4 (10 mM HEPES, 150 mM NaCl, pH 7.4, GE Healthcare). For the following kinetic characterization, running and dilution buffer was PBS-T (10 mM phosphate buffered saline including 0.05% Tween 20), pH 7.4. The sample block was set to 12° C. The flow cell was set to 25° C. and primed with running buffer twice.
Association was measured by injection of the anti-pTau antibody Fab fragment samples at various concentrations in solution for 180 seconds at a flow of 30 μl/min starting with 100 nM in 1:3 dilutions. The dissociation phase was monitored for up to 600 seconds and triggered by switching from the sample solution to running buffer. The surface was regenerated by washing with one injection of 10 mM glycine solution, pH 1.7 for 60 seconds at a flow rate of 10 μl/minute. Bulk refractive index differences were corrected by subtracting the response obtained from a blank surface. Blank injections were also subtracted (=double referencing). For calculation of KD and other kinetic parameters the Langmuir 1:1 model was used.

Kd [nM]	koff [s⁻¹]	kon [M⁻¹ s⁻¹]	Binder
0.3	0.000143	410000	B11
0.1	6.03e-05	423000	B12
0.6	0.000276	479000	B13

biological target: T4, full length human tau SEQ ID NO: 01; experiment: ELISA, non-phosphorylated full-length human tau coated at 1 ug/ml, antibody titrated

binding result	Binder
no binding (tested: 1000 ng/ml)	B14
no binding (tested: 1000 ng/ml)	B1
